From the supplement of paper PMC10126150
± gives the standard deviation of the averaged measurements.

Tested on: ATP
Experiment: switch fluorescence ratio, 500 uM ATP over buffer (Cy3 cluster intensity, sum of 5 cycles each) (fold (ratio)); higher = stronger signal-on switching upon ATP binding; sequences stand for … in TCGTCGGCAGCGTCAGATGTGTATAAGAGACAGTTTTTTTTTTTTTTTTTTTTTTTTT…TC
Settings: aptamer strand: ATP DNA aptamer (quencher-CACCTGGGGGAGTATTGCGGAGGAAGG + anchor), 100 nM annealed; ATP concentration: 500 uM
Method in brief: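 Switching-strand clusters labelled with Cy3 on a modified Illumina MiSeq flow-cell were annealed to 100 nM quencher-labelled ATP aptamer, imaged in selection buffer, and re-imaged after 15 min with 500 uM ATP at 22 °C. This was done over five cycles with NaOH stripping and re-annealing in between. The fluorescence ratio is summed target-cycle over summed buffer-cycle Cy3 intensity per cluster, averaged per switch-domain sequence, excluding clusters outside 100-1000 RFU.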
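Also: ATP exposure 15 min at 22 °C before imaging.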

| Sequence | switch fluorescence ratio |
| --- | --- |
| TTACCGTACG | 1.45 ± 0.11 |
| AAATAGGGCT | 1.004 ± 0.0097 |
| TGCTTATTTT | 1.01 ± 0.065 |
| GGGGTAGCCC | 0.9977 ± 0.004 |
| GGGTTGCAGC | 0.992 ± 0.032 |
| GCTGCAAGGG | 1.07 ± 0.063 |
| GTGGATGCGG | 0.962 ± 0.038 |
| GGTTTCCTTT | 0.992 ± 0.021 |
| GGTTAAGCCG | 0.996 ± 0.017 |
| TGAGGTAGGG | 0.976 ± 0.053 |
| TATTAAGGA | 0.9762 ± 0.009 |
| CCAAGGGGAG | 0.988 ± 0.037 |
| AACTGTTCTG | 1.01 ± 0.014 |
| CAGGGCATGG | 1.01 ± 0.0073 |
| TTTGTTCGGA | 0.9795 ± 0.0059 |
| ATATGCTGGT | 0.982 ± 0.014 |
| TTGTGCGTAG | 0.991 ± 0.047 |
| TATTCTCATC | 1.013 ± 0.0027 |
| TAGGGCCCGG | 1.03 ± 0.077 |
| AGTAAGTTGG | 0.967 ± 0.022 |
| TGGGATGGGG | 1.01 ± 0.037 |
| TACGTCTTGG | 1.04 ± 0.033 |
| AGTGGTGGGA | 1.01 ± 0.033 |
| GGCCGGGGGA | 1.03 ± 0.069 |
| TTAGAAAGGG | 0.977 ± 0.029 |
| GGTGGCAAAT | 1.01 ± 0.013 |

| Sequence | switch fluorescence ratio |
| --- | --- |
| AGGCTCTAAG | 1.01 ± 0.011 |
| TTTTACAGCC | 1.052 ± 0.0051 |
| GTGTTGGGGG | 0.984 ± 0.039 |
| CATTGCATTT | 1.3 ± 0.4 |
| AGACTGGGGC | 1.03 ± 0.03 |
| CTTTGGGTGG | 1.03 ± 0.058 |
| TCGCGGGAGA | 1.05 ± 0.023 |
| GGATGGTGGT | 1.01 ± 0.016 |
| ATAGTGGGGC | 1.056 ± 0.0054 |
| TGACTAGTTT | 1.005 ± 0.0059 |
| TATGAGTCGA | 1 ± 0.019 |
| GTGTGTCTCT | 0.999 ± 0.016 |
| GAATGAGAGA | 1 ± 0.037 |
| TTGGGTAAGT | 1.016 ± 0.0059 |
| ATGTATTAGG | 0.997 ± 0.025 |
| TTCTTTGACT | 0.983 ± 0.024 |
| GGCCTAAAGG | 1.005 ± 0.0082 |
| GGAAAGGGGG | 1.01 ± 0.064 |
| TACAGCAGGG | 1.04 ± 0.012 |
| GGGTGTTAGC | 1.02 ± 0.046 |
| TGAGATTGC | 1.03 ± 0.053 |
| GTCGAATTAT | 0.999 ± 0.019 |
| ATATTTCATT | 0.961 ± 0.012 |
| AATGTGGGGT | 0.995 ± 0.026 |
| ATGGACAGGT | 1.04 ± 0.031 |
| GGGGGCATCA | 1.07 ± 0.12 |

| Sequence | switch fluorescence ratio |
| --- | --- |
| TGCGTGGCGG | 1.02 ± 0.037 |
| CGGGTTTAAC | 0.998 ± 0.021 |
| TTGGGGAGAG | 0.991 ± 0.01 |
| CATTATGTGC | 0.981 ± 0.027 |
| AGTCCTCGGA | 0.96685 ± 0.00022 |
| TTTACTTTAT | 1.06 ± 0.044 |
| CGGGATTATG | 1.01 ± 0.052 |
| TGCCCGGGGG | 1.24 ± 0.26 |
| CGAGTAAAGA | 1.03 ± 0.028 |
| GGGTTCCGTG | 1.01 ± 0.024 |
| ATTTCTGGGT | 0.9885 ± 0.0082 |
| ATCGTAAGGG | 0.983 ± 0.038 |
| GTGCTAAATA | 1.02 ± 0.0067 |
| GGCTTAAGTA | 0.9833 ± 0.0084 |
| TAAAGATGAT | 1.01 ± 0.012 |
| CTGCGACTTT | 1.02 ± 0.035 |
| TGATGAAAGA | 0.996 ± 0.021 |
| TTAGGGGAAG | 1.01 ± 0.022 |
| TCTCGATTTT | 1.038 ± 0.0042 |
| AAGCTTTCGG | 1.03 ± 0.016 |
| TCACTGGTCT | 0.9849 ± 0.0037 |
| TTGAACGGGA | 1.01 ± 0.044 |
| GGCCGGTTGG | 0.9744 ± 0.0068 |
| GGGGCTAGTA | 0.991 ± 0.035 |
| ATGGTAAGAC | 1.14 ± 0.062 |
| GTATCTGGGT | 0.997 ± 0.011 |

| Sequence | switch fluorescence ratio |
| --- | --- |
| TAAAAGAAGA | 0.962 ± 0.016 |
| TGCAGGGATC | 1.03 ± 0.017 |
| AAATGCTTG | 0.983 ± 0.019 |
| ATATTCTTTT | 1.03 ± 0.091 |
| AGCATGGCTT | 1.04 ± 0.054 |
| TCGAGTTCTT | 0.999 ± 0.012 |
| GGGATAAGAG | 0.973 ± 0.029 |
| AGGGGTGCCA | 0.9529 ± 0.0048 |
| GATGTGATTT | 1.08 ± 0.078 |
| CCTATTGTAT | 1.02 ± 0.033 |
| GCTATACGTA | 1.22 ± 0.049 |
| AAGCCGGGAT | 1.02 ± 0.016 |
| TGTATAATTG | 0.993 ± 0.017 |
| ACTGAGTTTA | 1.02 ± 0.019 |
| CAAATTAGGG | 0.971 ± 0.036 |
| CGCTCCGCCT | 2.36 ± 0.11 |
| ATAAGGATGG | 0.9788 ± 0.0034 |
| GCCTGTAAGT | 0.989 ± 0.032 |
| ATATTGAGGG | 1.01 ± 0.00033 |
| ATTACTAGTG | 1.03 ± 0.014 |
| ATGGAAGAGG | 0.982 ± 0.018 |
| ATTAGACCCT | 1.038 ± 0.005 |
| AATATACGT | 1.05 ± 0.032 |
| CATTGTGTGA | 0.994 ± 0.021 |
| CAAAAGAGTG | 0.999 ± 0.018 |
| GAGAAAGTTC | 1.06 ± 0.038 |

| Sequence | switch fluorescence ratio |
| --- | --- |
| TTGAGGGCAT | 1.29 ± 0.45 |
| CCGACCAGGG | 1.3 ± 0.13 |
| TTTTTGATTT | 1.01 ± 0.036 |
| ATATTGGTTA | 0.9923 ± 0.0052 |
| CATAATAC | 1.82 ± 0.4 |
| ACTCTAGTTT | 1.048 ± 0.0027 |
| GGTAGATGTC | 1.01 ± 0.054 |
| CGGGGGGAGG | 1.01 ± 0.035 |
| AAATATCTCA | 1.02 ± 0.013 |
| GGGGGTGTTT | 0.998 ± 0.037 |
| TCCGGTTTTA | 0.981 ± 0.02 |
| ACGAGATGGT | 1.023 ± 0.0069 |
| GCGTGAGGTG | 1.01 ± 0.048 |
| TGATGAAAAA | 1.01 ± 0.04 |
| ATACTCTATT | 1.07 ± 0.025 |
| CGTGTGGTCG | 0.9325 ± 0.0038 |
| TGGATAGGGT | 0.961 ± 0.037 |
| GTTGATAACT | 1.009 ± 0.0012 |
| TAAATCGGGT | 1 ± 0.013 |
| GAACTGGGGG | 1 ± 0.019 |
| GCAGAAGGTA | 1.01 ± 0.029 |
| GGTCCAGTGA | 1.02 ± 0.023 |
| AGTGGGGGTT | 0.983 ± 0.019 |
| TGGATGGAGA | 1.006 ± 0.008 |
| TCGTAGCTAA | 4.37 ± 0.23 |
| GGGAAAGTAT | 0.982 ± 0.032 |

| Sequence | switch fluorescence ratio |
| --- | --- |
| GGTAGGAGCT | 1.02 ± 0.058 |
| TCGTTATGGA | 0.987 ± 0.035 |
| ACCGTGAAGG | 0.99924 ± 8.2e-05 |
| TTTCATACTC | 1.29 ± 0.21 |
| TGTGGACTGT | 0.9855 ± 0.0015 |
| TGAGAACGCA | 1.2 ± 0.054 |
| TGGGGGGACA | 0.985 ± 0.015 |
| AACTAGGAGG | 0.983 ± 0.012 |
| TGGATGTGGG | 1.03 ± 0.031 |
| GGTCGTTGAA | 1.02 ± 0.057 |
| TGAATATCTT | 1.01 ± 0.026 |
| GGAAAATTCT | 1.01 ± 0.013 |
| GGTTGATATG | 1 ± 0.041 |
| AAATAATGT | 1.02 ± 0.016 |
| TTGAGCAGCG | 1.09 ± 0.07 |
| GATATTTCCC | 0.9981 ± 0.0064 |
| GGGGGCTGCA | 1.02 ± 0.032 |
| CTGGTTACGC | 1.003 ± 0.0057 |
| GAATTATTGT | 0.959 ± 0.022 |
| ATTAGCGCCC | 1.01 ± 0.032 |
| TGAGATGAAG | 1.005 ± 0.0085 |
| TAATTTTTGG | 0.992 ± 0.023 |
| CCATAGGTCC | 1.017 ± 0.0071 |
